From US20080207488A1, “Method for Detecting Peptides Comprising a Cross-B Structure” (priority 2005, published 2008) come the findings set out here.

The target of series [1] is T1, human fibronectin finger 4,5 (Fn F4,5) fragment (Homo sapiens, UniProt P02751).
T1 construct: human fibronectin finger 4,5 (Fn F4,5) fragment; made in house; host or cells: HEK293E cells, transient transfection, protein purified from the medium
Put plainly: ELISA, binding of fibronectin F4,5 to coated (mis)folded proteins. Particulars: coated protein, FIG. 7D-H. On the procedure:
(§1) The plates were blocked using Blocking reagent (Roche 1112589). A dilution series of the protein of interest was applied to the coated proteins and wells were subsequently washed using TBS-T (50 mM Tris pH 7.3, 150 mM NaCl and 0.1% Tween20). Bound protein is detected by the FLAG-tag using 1:3000 anti-FLAG-HRP (Sigma A-8592) in PBS-T, or by 1:1000 Ni-NTA-HRP (Qiagen 34530) in PBS-T. The HRP reaction Is performed using the TMB substrate (Biosource 4501103 or Tebu Bio 101TMB100-500), stopped using 10% H2SO4 and absorbance was measured at 450 nm.
A general note: ELISA stands for enzyme-linked immunosorbent assay.

The test system of series [2] is human tissue-type plasminogen activator finger EGF (tPA F-EGF) fragment. Put plainly: ELISA, binding of tPA F-EGF to coated (mis)folded proteins. Particulars: coated protein, FIG. 7A, I. The method, then: as §1
Sequence of human tissue-type plasminogen activator finger EGF (tPA F-EGF) fragment (P00750 39-120 limits assumed): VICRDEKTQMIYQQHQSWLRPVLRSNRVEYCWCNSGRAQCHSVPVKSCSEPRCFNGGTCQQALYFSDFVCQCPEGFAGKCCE
In series [3] the test system is Balb/c mice. The experiment in a line: Immunization of Balb/c mice with ovalbumin and amyloid-like ovalbumin. Type of series: in vivo. Conditions: without adjuvant. The method, then: Eight to ten weeks old female Balb/c mice are immunized with OVA according to two immunization regimes (Central Animal Laboratories, Utrecht University, The Netherlands). Pre-immune serum was collected prior to the immunizations. In one regime two groups of five mice were subcutaneously injected five consecutive days per week, for three consecutive weeks. Doses comprised 10 μg native OVA or heat-denatured OVA for each injection. Alternatively, according to the second protocol, three groups of five mice were injected once intraperitoneally with doses comprising 5 μg nOVA, 5 μg OVA or 5 μg native OVA mixed 1:1 with complete Freund's adjuvant (CFA). Each week, blood was taken. After three weeks, a second dose was given. Incomplete Freund's adjuvant (IFA) was used instead of CFA. Blood was taken after one week after the start of the immunization. Antibody titers in sera were determined and sera were analyzed for the presence of cross-β structure conformation specific antibodies. For this purpose, nOVA was coated onto wells of 96-wells ELISA plates and incubated with dilution series of sera. Sera of the groups of five mice were pooled prior to the analyses. Plates were washed and subsequently incubated with peroxidase-conjugated rabbit anti-mouse immunoglobulins (RAMPO, P0260, DAKOCytomation, Glostrup, Denmark). Plates were subsequently developed with tetramethylbenzidine (TMB) substrate. […]

Series [4] can be described thus: Thioflavin T fluorescence. The series is classed as physicochemical. The method, then: Fluorescence of ThT-protein/peptide adducts was measured as follows. […] Fluorescence was measured at 485 nm upon excitation at 435 nm. Background signals from buffer, buffer with ThT and protein/peptide solution without ThT were subtracted from corresponding measurements with protein solution incubated with ThT. […] Fluorescence was measured in triplicate on a Hitachi F-4500 fluorescence spectrophotometer (Ltd., Tokyo, Japan).
Formulated protein therapeutics were obtained from the local hospital pharmacy and were used as supplied by the manufacturers. […] Lyophilized therapeutics were dissolved according to the manufacturers recommendations. […] Enhancement in fluorescence of ThT and Congo red was measured with all formulated protein therapeutics. […]
To prepare structurally altered ovalbumin (OVA) with amyloid cross-β structure conformation, purified OVA (Sigma, A-7641, lot 071k7094) was heated to 85° C. […] Native OVA (nOVA) and heat-denatured OVA (dOVA) were tested in the ThT fluorescence assay and in the Plg-activation assay. In the fluorescence assay and in the Plg-activation assay, 25 and 100 μg ml^−1 nOVA and dOVA were tested, respectively. […] In the ThT-fluorescence assay 25 μg ml^−1 nMSA and alkyl-MSA were tested, and in the Plg-activation assay 100 μg ml^−1 was tested. The presence of aggregates or fibrils was analyzed using TEM. […]

Series [5] concerns Balb/c mice. Put plainly: Immunization of mice with β2gpi preparations, titers against native human β2gpi. The series is classed as in vivo. Conditions: four injections of 15 μg antigen. On the procedure: Female BalB/C cAnNHSd (Harlan) 7-9 weeks were housed in filtertop cages in groups of 5 mice per group. After approximately one week of adjustment to the environment, pre-immune sera were drawn. On the start of the first week, mice were given either 100 μl plasma (150 μg/ml) β2-Glycoprotein 1,100 μl alkyl-β2-Glycoprotein I (150 μg/ml) or 100 μl of a mixture of 150 μg/ml of 82-Glycoprotein I with 9.33 μM cardiolipin (CL-β2gpi). This latter sample was prepared by pre-incubating 400 μg/ml of 62-GPI with 25 μM of cardiolipin vesicles for at least 10 minutes at RT after mixing the sample by pipetting; afterwards samples were diluted to 150 μg/ml. […]
Sera were analyzed for antibodies against unmodified native (coated) β2-GPI. […] Antibody titers were determined by adding pooled sera of each experimental group (n=5) in three-fold serial dilutions (starting from 1:30, 50 μl/well) to plates coated with native human β2gpi. […] The plates were stained for approximately 5 minutes using 100 μL/well of TMB substrate (Biosource Europe, Nivelles, Belgium), the reaction was stopped with 50 μL/well of 2 M H2SO4 and read at 450 nm on a Spectramax340 microplate reader. The absorbance values were plotted against log dilution. […] For comparison, the dilution that yielded a residual absorbance after background subtraction of 0.1 was arbitrarily taken as the titer of the various sera.

Series [6] concerns Balb/c mice. Put plainly: Immunization of mice with β2gpi preparations, serum binding to murine β2gpi. Type of series: in vivo. Particulars: 100-fold diluted sera. The method, then:
Female BalB/C cAnNHSd (Harlan) 7-9 weeks were housed in filtertop cages in groups of 5 mice per group. After approximately one week of adjustment to the environment, pre-immune sera were drawn. On the start of the first week, mice were given either 100 μl plasma (150 μg/ml) β2-Glycoprotein 1,100 μl alkyl-β2-Glycoprotein I (150 μg/ml) or 100 μl of a mixture of 150 μg/ml of 82-Glycoprotein I with 9.33 μM cardiolipin (CL-β2gpi). This latter sample was prepared by pre-incubating 400 μg/ml of 62-GPI with 25 μM of cardiolipin vesicles for at least 10 minutes at RT after mixing the sample by pipetting; afterwards samples were diluted to 150 μg/ml. […] All dilutions were made freshly in TBS and kept on ice. Injections were given intravenously in the tail veins of the mice and given on Mondays and Fridays of the first and third week. Blood was drawn three days prior to the experiment, and on Wednesdays of week 2 and 4 by puncture of vena Saphena. Blood was collected in Easycollect tubes, with Z serum clot activator. Sera were prepared by centrifugation in a tabletop centrifuge, with a rotor diameter of 7 cm, at 3800 rpm for 10 minutes (slow start and stop) and stored at −20° C. before analysis.
In this way, it was determined whether immunizations of mice with human β2gpi elicits a humoral auto-immune response against murine β2gpi.

T1 sequence (P02751 182-276 limits assumed): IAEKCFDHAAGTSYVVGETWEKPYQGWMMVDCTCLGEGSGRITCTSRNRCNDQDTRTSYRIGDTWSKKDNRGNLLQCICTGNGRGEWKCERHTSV

B1: dOVA: ovalbumin heat-denatured at 85° C., amyloid-like (protein)
chain: GSIGAASMEFCFDVFKELKVHHANENIFYCPIAIMSALAMVYLGAKDSTRTQINKVVRFDKLPGFGDSIEAQCGTSVNVHSSLRDILNQITKPNDVYSFSLASRLYAEERYPILPEYLQCVKELYRGGLEPINFQTAADQARELINSWVESQTNGIIRNVLQPSSVDSQTAMVLVNAIVFKGLWEKAFKDEDTQAMPFRVTEQESKPVQMMYQIGLFRVASMASEKMKILELPFASGTMSMLVLLPDEVSGLEQLESIINFEKLTEWTSSNVMEERKIKVYLPRMKMEEKYNLTSVLMAMGITDVFSSSANLSGISSAESLKISQAVHAAHAEINEAGREVVGSAEAGVDAASVSEEFRADHPFLFCIKHIATNAVLFFGRCVSP
As for B1, the “affinity of fibronectin F4,5 (detection anti-FLAG HRP)” value in series [1] is given as “clear difference in binding affinity”. In addition, the “binding of tPA F-EGF” value in series [2] is “Much lower binding”. In the series on Balb/c mice [3], the “anti-nOVA antibody titers in pooled sera” value is listed as “higher antibody titers”. The “ThT fluorescence enhancement of native and denatured proteins” value in series [4] (25 μg ml^−1) is “filtration through a 0.2 μm filter does not reduce the enhancement of ThT fluorescence”.

B2: alkyl-β2gpi: reduced and alkylated human β2-glycoprotein I (protein, UniProt P02749 20-345, looked up)
Beta-2-glycoprotein 1: GRTCPKPDDLPFSTVVPLKTFYEPGEEITYSCKPGYVSRGGMRKFICPLTGLWPINTLKCTPRVCPFAGILENGAVRYTTFEYPNTISFSCNTGFYLNGADSAKCTEEGKWSPELPVCAPIICPPPSIPTFATLRVYKPSAGNNSLYRDTAVFECLPQHAMFGNDTITCTTHGNWTKLPECREVKCPFPSRPDNGFVNYPAKPTLYYKDKATFGCHDGYSLDGPEEIECTKLGNWSAMPSCKASCKVPVKKATVVYQGERVKIQEKFKNGMLHGDKVSFFCKNKEKKCSYTEDAQCIDGTIEVPKCFKEHSSLAFWKTDASDVKPC
modifications: reduced and alkylated
notes: reduced and alkylated human β2-glycoprotein I
On to B2, for which, in the series with Balb/c mice [5], the “humoral immune response compared to native β2gpi” value is on record as “far higher humoral immune responses”. Also, the “titers against mouse self-β2gpi” value with Balb/c mice [6] was “higher titers against mouse self-β2gpi”. Moreover, in series [4] (compared with native β2gpi), the “Thioflavin T fluorescence of modified β2gpi” value was “enhanced Thioflavin T fluorescence”.
